These results are taken from article PMC10694668 (The Journal of Biological Chemistry, 2023).

The labels stand for the following.
B3: Cg25c NC1 domain of the tissue-extracted (endogenous) NC1 hexamer (domain or fragment, Drosophila (endogenous in fly pellet))
chain: LDYLTGILITRHSQSETVPACSAGHTELWTGYSLLYVDGNDYAHNQDLGSPGSCVPRFSTLPVLSCGQNNVCNYASRNDKTFWLTTNAAIPMMPVENIEIRQYISRCVVCEAPANVIAVHSQTIEVPDCPNGWEGLWIGYSFLMHTAVGNGGGGQALQSPGSCLEDFRATPFIECNGAKGTCHFYETMTSFWMYNLESSQPFERPQQQTIKAGERQSHVSRCQVCMKNSS
modifications: sulfilimine cross-links in the tissue-extracted hexamer
notes: collagen IV Cg25c chain of Drosophila, NC1 domain set free by collagenase; NC1 numbering starts at residue 1551 of P08120; Fly Pellet, DGRC Stock 1661280; also called Cg25c chain; source: purified from Drosophila pellet (collagenase treatment; SEC, Q-sepharose, hydroxyapatite)
B4: Cg25c NC1 domain as it stands in the single-chain CVC trimer (domain or fragment, Drosophila)
chain: LDYLTGILITRHSQSETVPACSAGHTELWTGYSLLYVDGNDYAHNQDLGSPGSCVPRFSTLPVLSCGQNNVCNYASRNDKTFWLTTNAAIPMMPVENIEIRQYISRCVVCEAPANVIAVHSQTIEVPDCPNGWEGLWIGYSFLMHTAVGNGGGGQALQSPGSCLEDFRATPFIECNGAKGTCHFYETMTSFWMYNLESSQPFERPQQQTIKAGERQSHVSRCQVCMKNSS
notes: collagen IV Cg25c chain of Drosophila, NC1 domain; NC1 numbering starts at residue 1551 of P08120; Not a free chain: joined to the Vkg NC1 domain by GSSASSG linkers on the chain of m5 (it stands there twice; the first copy carries the N-terminal FLAG tag); Made a molecule only for the pairs seen in the CVC crystal structure; source: expiCHO-S cells, as a part of the single-chain CVC trimer; …

Data set [1] has as its target single-chain CVC NC1 trimer (Cg25c-Vkg-Cg25c NC1 domains on one chain, FLAG-tagged, without mEmerald) (Drosophila) (UniProt P08120). Kind of data set: SEC; trimer peaks pooled, concentrated to ~10 mg/ml, kept at 4 °C for a month (legend: about 6 months) in tris-buffered saline; peaks also pooled and rerun in tris-buffered saline; trimer to hexamer. A general note: SEC sorts molecules by how far they enter the pores of the column.

Data set [2] deals with B3. The data set can be described thus: SEC; collagenase digest of Drosophila pellet; hexamer peak at 12.99 ml; then Q-sepharose and hydroxyapatite; single band of the sample not boiled cut out, trypsin or chymotrypsin digestion, MS/MS. To be noted: both partners purified.
The target of data set [3] is B4. The data set can be described thus: crystal structure; recombinant CVC trimer, ~8.5 mg/ml, 0.1 M Na/K phosphate pH 6.5, 0.2 M NaCl, 26% PEG 1000, 22 °C; 1.75 Å; hexamer in the crystal. The note with it: both partners purified.
Data set [4] concerns the molecule itself. The data set can be described thus: crystal structure; tissue-extracted NC1 hexamer, ~3.5 mg/ml, 35% MPD, 0.1 M NaCl, 100 mM Hepes pH 7.5, 22 °C; 2.98 Å.
Data set [5] deals with the molecule itself. Kind of data set: crystal structure; recombinant CVC trimer, ~8.5 mg/ml, 0.1 M Na/K phosphate pH 6.5, 0.2 M NaCl, 26% PEG 1000, 22 °C; 1.75 Å; hexamer in the crystal.

“single-chain CVC NC1 trimer (Cg25c-Vkg-Cg25c NC1 domains on one chain, FLAG-tagged, without mEmerald) (from UniProt P08120 1550-1779; Q9VMV5 1510-1739; P08120 1550-1779)” registered a percent in the hexamer peak in data set [1] of 25%.

B1: Vkg NC1 domain of the tissue-extracted (endogenous) NC1 hexamer (domain or fragment, Drosophila (endogenous in fly pellet))
chain: APKSRGFIFARHSQSVHVPQCPANTNLLWEGYSLSGNVAASRAVGQDLGQSGSCMMRFTTMPYMLCDITNVCHFAQNNDDSLWLSTAEPMPMTMTPIQGRDLMKYISRCVVCETTTRIIALHSQSMSIPDCPGGWEEMWTGYSYFMSTLDNVGGVGQNLVSPGSCLEEFRAQPVIECHGHGRCNYYDALASFWLTVIEEQDQFVQPRQQTLKADFTSKISRCTVCRRRGN
modifications: sulfilimine cross-links in the tissue-extracted hexamer
notes: collagen IV Vkg (Viking) chain of Drosophila, NC1 domain set free by collagenase; NC1 numbering starts at residue 1511 of Q9VMV5; peptides of the tail after the NC1 domain were not detected; Fly Pellet, DGRC Stock 1661280; also called Viking; Vkg chain; source: purified from Drosophila pellet (collagenase treatment; SEC, Q-sepharose, hydroxyapatite)
B1: the binding result in data set [2] is listed as “binds”.

B2: Vkg NC1 domain as it stands in the single-chain CVC trimer (domain or fragment, Drosophila)
chain: APKSRGFIFARHSQSVHVPQCPANTNLLWEGYSLSGNVAASRAVGQDLGQSGSCMMRFTTMPYMLCDITNVCHFAQNNDDSLWLSTAEPMPMTMTPIQGRDLMKYISRCVVCETTTRIIALHSQSMSIPDCPGGWEEMWTGYSYFMSTLDNVGGVGQNLVSPGSCLEEFRAQPVIECHGHGRCNYYDALASFWLTVIEEQDQFVQPRQQTLKADFTSKISRCTVCRRRGN
notes: collagen IV Vkg (Viking) chain of Drosophila, NC1 domain; NC1 numbering starts at residue 1511 of Q9VMV5; Not a free chain: joined on both sides to Cg25c NC1 domains by GSSASSG linkers on the chain of m5; Made a molecule only for the pairs seen in the CVC crystal structure; source: expiCHO-S cells, as a part of the single-chain CVC trimer; purified (anti-FLAG resin, SEC)
Consider B2, for which the binding result in data set [3] is “binds”. Take B3: the binding result in data set [4] is given as “binds”. Regarding B4, the binding result in data set [5] was “binds”.
